Test results from PMC6613838 (Autophagy, 2019).

B1: His-CSNK1A1 (enzyme)
chain: MASSSGSKAEFIVGGKYKLVRKIGSGSFGDIYLAINITNGEEVAVKLESQKARHPQLLYESKLYKILQGGVGIPHIRWYGQEKDYNVLVMDLLGPSLEDLFNFCSRRFTMKTVLMLADQMISRIEYVHTKNFIHRDIKPDNFLMGIGRHCNKLFLIDFGLAKKYRDNRTRQHIPYREDKNLTGTARYASINAHLGIEQSRRDDMESLGYVLMYFNRTSLPWQGLKAATKKQKYEKISEKKMSTPVEVLCKGFPAEFAMYLNYCRGLRFEEAPDYMYLRQLFRILFRTLNHQYDYTFDWTMLKQKAAQQAASSSGQGQQAQTPTGKQTDKTKSNMKGF
B2: GST-UVRAG FL (natural protein)
chain: MSASASVGGPVPQPPPGPAAALPPGSAARALHVELPSQQRRLRHLRNIAARNIVNRNGHQLLDTYFTLHLCSTEKIYKEFYRSEVIKNSLNPTWRSLDFGIMPDRLDTSVSCFVVKIWGGKENIYQLLIEWKVCLDGLKYLGQQIHARNQNEIIFGLNDGYYGAPFEHKGYSNAQKTILLQVDQNCVRNSYDVFSLLRLHRAQCAIKQTQVTVQKIGKEIEEKLRLTSTSNELKKKSECLQLKILVLQNELERQKKALGREVALLHKQQIALQDKGSAFSAEHLKLQLQKESLNELRKECTAKRELFLKTNAQLTIRCRQLLSELSYIYPIDLNEHKDYFVCGVKLPNSEDFQAKDDGSIAVALGYTAHLVSMISFFLQVPLRYPIIHKGSRSTIKDNINDKLTEKEREFPLYPKGGEKLQFDYGVYLLNKNIAQLRYQHGLGTPDLRQTLPNLKNFMEHGLMVRCDRHHTSSAIPVPKRQSSIFGGADVGFSGGIPSPDKGHRKRASSENERLQYKTPPPSYNSALAQPVTTVPSMGETERKITSLSSSLDTSLDFSKENKKKGEDLVGSLNGGHANVHPSQEQGEALSGHRATVNGTLLPSEQAGSASVQLPGEFHPVSEAELCCTVEQAEEIIGLEATGFASGDQLEAFNCIPVDSAVAVECDEQVLGEFEEFSRRIYALNENVSSFRRPRRSSDK
B3: GST-UVRAG C-terminal fragment (501–699 aa) (domain or fragment)
chain: KGHRKRASSENERLQYKTPPPSYNSALAQPVTTVPSMGETERKITSLSSSLDTSLDFSKENKKKGEDLVGSLNGGHANVHPSQEQGEALSGHRATVNGTLLPSEQAGSASVQLPGEFHPVSEAELCCTVEQAEEIIGLEATGFASGDQLEAFNCIPVDSAVAVECDEQVLGEFEEFSRRIYALNENVSSFRRPRRSSDK

How the values were obtained:
[1] = biological target: B2; experiment: pull-down
[2] = biological target: His-SMURF1 (E. coli) (human, UniProt Q9HCE7-2 1-731); experiment: pull-down

Binder	binding result [1]	binding result [2]
B1	binds	–
B2	–	binds
B3	–	binds
